Reference: US20250145729A1 (DENALI THERAPEUTICS, published 2025)

Columns and labels:
Assay in all cases: SPR (Biacore)
LLB2-10-6 Mono = biological target: T1, LLB2-10-6 Mono (Homo sapiens (Human), UniProt P0DOX5 233-449 = IgG part; P0DOX5 233-449 = IgG part, T366W)
T1 construct: Fc parts only
Procedure, shortened: (§1)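 Binding affinity (Kd) of the engineered Fc polypeptides for CD98hc was measured by surface plasmon resonance on a Biacore instrument. Clones were cloned, expressed and purified as Fc-Fab fusions carrying anti-BACE1 Fabs. They were tested in a bivalent format or in a monovalent knob/hole format with the CD98hc-binding site on the knob chain only. The text gives no concentrations, temperature, buffer or replicate numbers.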

[1] = biological target: T2, LLB2-37 (monovalent, Table A6) (Homo sapiens (Human), UniProt P0DOX5 233-449 = IgG part; P0DOX5 233-449 = IgG part, T366W)
T2 construct: Fc parts only
Procedure, shortened: as §1

LLB2.10.8.2.1 = biological target: T3, LLB2.10.8.2.1 (Homo sapiens (Human), UniProt P0DOX5 233-449 = IgG part; P0DOX5 233-449 = IgG part, T366W)
T3 construct: Fc parts only
Procedure, shortened: as §1

LLB2.10.8.12.5 = biological target: T4, LLB2.10.8.12.5 (Homo sapiens (Human), UniProt P0DOX5 233-449 = IgG part; P0DOX5 233-449 = IgG part, T366W)
T4 construct: Fc parts only
Procedure, shortened: as §1

LLB2.10.8.4.12 = biological target: T5, LLB2.10.8.4.12 (Homo sapiens (Human), UniProt P0DOX5 233-449 = IgG part; P0DOX5 233-449 = IgG part, T366W)
T5 construct: Fc parts only
Procedure, shortened: as §1

LLB2.10.8.10.1 = biological target: T6, LLB2.10.8.10.1 (Homo sapiens (Human), UniProt P0DOX5 233-449 = IgG part; P0DOX5 233-449 = IgG part, T366W)
T6 construct: Fc parts only
Procedure, shortened: as §1

LLB2.10.8.10.3 = biological target: T7, LLB2.10.8.10.3 (Homo sapiens (Human), UniProt P0DOX5 233-449 = IgG part; P0DOX5 233-449 = IgG part, T366W)
T7 construct: Fc parts only
Procedure, shortened: as §1

LLB2.10.8.10.8 = biological target: T8, LLB2.10.8.10.8 (Homo sapiens (Human), UniProt P0DOX5 233-449 = IgG part; P0DOX5 233-449 = IgG part, T366W)
T8 construct: Fc parts only
Procedure, shortened: as §1

LLB2-10-8-d1 MV = biological target: T9, LLB2-10-8-d1 MV (Homo sapiens (Human), UniProt P0DOX5 233-449 = IgG part; P0DOX5 233-449 = IgG part, T366W)
T9 construct: Fc parts only; MV = monovalent
Procedure, shortened: as §1

LLB2-10-8-d3 MV = biological target: T10, LLB2-10-8-d3 MV (Homo sapiens (Human), UniProt P0DOX5 233-449 = IgG part; P0DOX5 233-449 = IgG part, T366W)
T10 construct: Fc parts only; MV = monovalent
Procedure, shortened: as §1

Kd (LLB2-10-6 Mono): 0.42 µM
Kd [1]: 0.39 µM
Kd (LLB2.10.8.2.1): 0.11 µM
Kd (LLB2.10.8.12.5): 0.23 µM
Kd (LLB2.10.8.4.12): 0.015 µM
Kd (LLB2.10.8.10.1): 0.054 µM
Kd (LLB2.10.8.10.3): 0.043 µM
Kd (LLB2.10.8.10.8): 0.094 µM
Kd (LLB2-10-8-d1 MV): 0.25 µM
Kd (LLB2-10-8-d3 MV): 0.47 µM
B1: human CD98hc (receptor)
chain: CRELPAQKWWHTGALYRIGDLQAFQGHGAGNLAGLKGRLDYLSSLKVKGLVLGPIHKNQKDDVAQTDLLQIDPNFGSKEDFDSLLQSAKKKSIRVILDLTPNYRGENSWFSTQVDTVATKVKDALEFWLQAGVDGFQVRDIENLKDASSFLAEWQNITKGFSEDRLLIAGTNSSDLQQILSLLESNKDLLLTSSYLSDSGSTGEHTKSLVTQYLNATGNRWCSWSLSQARLLTSFLPAQLLRLYQLMLFTLPGTPVFSYGDEIGLDAAALPGQPMEAPVMLWDESSFPDIPGAVSANMTVKGQSEDPGSLLSLFRRLSDQRSKERSLLHGDFHAFSAGPGLFSYIRHWDQNERFLVVLNFGDVGLSAGLQASDLPASASLPAKADLLLSTQPGREEGSPLELERLKLEPHEGLLLRFPYAA
notes: also called huCD98hc; CD98 heavy chain
